Assay [1] addresses T1, FAM19A1 protein (ELISA of Example 3) (Homo sapiens (Human), UniProt Q7Z5A9 20-133). In words: ELISA, IgG titrated from 0 to 100 nM on FAM19A1 protein (Example 3); Kd row of the table under the graph, R square 0.9106, the concentration axis reads Cons (nM); fitted curve levels off low, at A450 about 0.75.
Assay [2] has as its target T2, hRAGE-Fc (human (by the label hRAGE), UniProt Q15109 23-344, limits assumed).
T2 construct: Control antigen
In words: mono scFv-phage ELISA on coated antigen, single point (Example 2). For orientation: ELISA stands for enzyme-linked immunosorbent assay.

The target in assay [3] is T3, CD58-Fc (UniProt P19256 29-215, limits assumed).
T3 construct: Control antigen
T3 sequence (looked up): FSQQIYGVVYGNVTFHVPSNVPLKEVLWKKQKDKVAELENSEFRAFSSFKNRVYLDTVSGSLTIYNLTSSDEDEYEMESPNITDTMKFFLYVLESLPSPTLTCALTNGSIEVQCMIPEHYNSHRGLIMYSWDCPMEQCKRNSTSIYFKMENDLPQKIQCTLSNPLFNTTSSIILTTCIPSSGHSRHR
The description is as above.

The target of assay [4] is T4, AITR-Fc (UniProt Q9Y5U5 26-161, limits assumed).
T4 construct: also called AIRTR
T4 sequence (looked up): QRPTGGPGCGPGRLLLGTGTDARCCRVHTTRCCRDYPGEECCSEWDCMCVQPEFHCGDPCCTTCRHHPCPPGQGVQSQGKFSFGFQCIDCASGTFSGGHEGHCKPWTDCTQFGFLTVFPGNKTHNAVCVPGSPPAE
The description is as above.

Assay [5] deals with Wild-type FAM19A1 (Table 10) (Mus musculus (Mouse), UniProt Q7TPG8 20-133). In words: ELISA on coated FAM19A1 protein (500 ng), one antibody amount, anti-hKappa-HRP (Example 4).
For assay [6], the target named is Fam19A1-M1. The assay is described as above.
Assay [7] concerns the target Fam19A1-M4. Described as above.
In assay [8] the target is Fam19A1-M3. Described as above.
Assay [9] has as its target Fam19A1-M5. Described as above.
Assay [10] deals with Fam19A1-M2. The assay is described as above.
Assay [11] addresses Fam19A1-M7. The description is as above.
For assay [12], the target named is T1, FAM19A1 protein (ELISA of Example 3). In words: ELISA, IgG titrated from 0 to 100 nM on FAM19A1 protein (Example 3); Kd row of the table under the graph, R square 0.9527, the concentration axis reads Cons (nM); fitted curve levels off at A450 about 2.8, last point at 100 nM about 3.1.
In assay [13] the target is FAM19A1 mutant M6 (Mus musculus (Mouse), UniProt Q7TPG8 20-133). As to the kind of experiment: ELISA on plate-coated mutant, anti-hKappa-HRP detection.
The target of assay [14] is T1, FAM19A1 protein (ELISA of Example 3). In words: ELISA, IgG titrated from 0 to 100 nM on FAM19A1 protein (Example 3); Kd row of the table under the graph, R square 0.9168, the concentration axis reads Cons (nM); the curve is faint and not told apart from that of 1A11.

For orientation: Kd means the constant that tells how readily two partners part at equilibrium.

T2 sequence (Q15109 23-344 limits assumed): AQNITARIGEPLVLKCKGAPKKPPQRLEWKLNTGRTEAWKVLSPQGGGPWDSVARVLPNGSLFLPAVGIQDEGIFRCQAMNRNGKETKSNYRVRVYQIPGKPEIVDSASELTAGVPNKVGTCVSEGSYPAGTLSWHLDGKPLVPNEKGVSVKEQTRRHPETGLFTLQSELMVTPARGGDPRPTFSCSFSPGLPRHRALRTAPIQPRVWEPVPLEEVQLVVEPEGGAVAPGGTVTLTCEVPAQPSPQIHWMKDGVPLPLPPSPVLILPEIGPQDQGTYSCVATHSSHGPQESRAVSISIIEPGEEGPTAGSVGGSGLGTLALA

B1: anti-FAM19A1-2G7 (antibody, V domains shown)
VH: QVQLVESGGGLVKPGRSLSLSCTTSGFPFGDHAINWVRQAPGKGLEWVGFIRSNTYGGTTQYAASVEGRFTISRDDSKSIAYLQMNSLRAEDTAVYYCTKDITGGGFWSDYGDYFDAFDFWGQGTMVTVSS
VL: SYELTQPLSVSVSPGQTASISCSGDKLGYKYASWYQQKPGQSPVVVIYQDKKRPSGIPERFSGSNSGNTATLTISGTQPMDEADYYCQAWDSGTASHVFGTGTKVTVL
notes: also called anti-FAM19A1 IgG1 antibody clone 2G7
B1: in assay [1], the Kd worked out at 1.89 nM.

B2: Anti-FAM19A1 2G7 mono scFv-phage clone (scFv, V domains shown)
VH: B1 VH
VL: B1 VL
Consider B2, for which the binding result in [2], in [3] and in assay [4] was “no binding” each time.

B3: anti-FAM19A1 IgG1 antibody clone 1C1 (antibody, V domains shown)
VH: QVQLVESGGGVAQPGRSLRLSCAASGFAFSDYGIHWVRQAPGKGLEWVALISYDGSKRSYADSVKGRFAISRDNSKNTLYLQMNSLRAEDTAVYYCARPGDYALAFDLWGQGTMVTVSS
VL: QTVVTQEPSFSVSPGETVTLTCGLSSGSVSTSHFPSWYRQTPGQAPRPLIDSRNARSIGVPDRFSGSIVGTKATLTISGAQAEDECNYYCALYMGRGNWVFGGGTKLTVL
notes: also called A1-1C1; FAM19A1-1C1
For B3, the binding result in [5], in [6], in assay [7], in assay [8], in assay [9] and in assay [10] was “binds” in each case. The values for the binding result in [11] and in assay [13] were “binds” and “no binding”, respectively. The molecule also showed a Kd in [12] of 1.13 nM.

B4: Anti-FAM19A1 1C1 mono scFv-phage clone (scFv, V domains shown)
VH: B3 VH
VL: B3 VL
On to B4, for which the binding result in assay [2], in [3] and in assay [4] was “no binding” throughout.

B5: anti-FAM19A1-3A8 (antibody, V domains shown)
VH: QVQLQQSGPGLVKPSETLSLICSVSGDAITSGSYYWGWIRQSPGRGLEWIGEISHSGSTDYNPSLKSRVTISVDKSRNQFSLRLNSVTAVDTAVYYCAGDTALVGAYSIWGQGTMVTVSS
VL: SYELTQAPSLSVSPGQTANIICSGDNLRTKYVSWYQQKPGQSPLLVIYQDTRRPSGIPARFSGSNSGNTATLTISGTQTRDESTYYCMTWDVDTTSMIFGGGTKLTVL
notes: also called anti-FAM19A1 IgG1 antibody clone 3A8
For B5, binding in assay [14] was characterised by a dissociation constant (Kd) of 56 nM.

B6: Anti-FAM19A1 3A8 mono scFv-phage clone (scFv, V domains shown)
VH: B5 VH
VL: B5 VL
Turning to B6, the binding result in assay [2], in assay [3] and in [4] was “no binding” each time.

B7: anti-FAM19A1-1A11 (antibody, V domains shown)
VH: QVQLVESGAEVRKPGASVKVSCKASGYSFTGYDINWVRQAPGQGLEWMGWMNPSSGNTGYAQKFQGRVTMTRDSSISTAYMELSSLRSEDTAVYYCARALNSVYYYHALDVWGQGTTITVSS
VL: SYELTQPPSASVSPGQTASITCSGDRLHNKYTSWYQQKPGQSPLLVIYQDAKRPSGIPERFSGSSSRGTATLTISGTQATDEADYYCQTWDRSTGVFGTGTKVTVL
notes: also called anti-FAM19A1 IgG1 antibody clone 1A11; A1-1A11-Ybio
As for B7, the binding result in assay [6] and in assay [10] was “binds” in each case.

B8: Anti-FAM19A1 1A11 mono scFv-phage clone (scFv, V domains shown)
VH: B7 VH
VL: B7 VL
With B8, the binding result in assay [2], in assay [3] and in [4] was “no binding” each time.
